Read-outs that look alike come from different tables or passages of the source.
T1: Sac7d M29A (Sulfolobus acidocaldarius, UniProt P13123 1-66, M29A)
T1 sequence: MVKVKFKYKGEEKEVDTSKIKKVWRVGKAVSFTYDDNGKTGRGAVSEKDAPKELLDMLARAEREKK

T2: Sac7d V26A (Sulfolobus acidocaldarius, UniProt P13123 1-66, V26A)
T2 sequence: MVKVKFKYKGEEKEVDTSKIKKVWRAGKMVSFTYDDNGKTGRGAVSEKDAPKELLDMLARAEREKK

T3: Sac7d V26A/M29A (Sulfolobus acidocaldarius, UniProt P13123 1-66, V26A;M29A)
T3 sequence: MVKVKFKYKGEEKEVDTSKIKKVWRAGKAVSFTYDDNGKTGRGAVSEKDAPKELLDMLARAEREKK

T4: Sac7d V26F/M29F (Sulfolobus acidocaldarius, UniProt P13123 1-66, V26F;M29F)
T4 sequence: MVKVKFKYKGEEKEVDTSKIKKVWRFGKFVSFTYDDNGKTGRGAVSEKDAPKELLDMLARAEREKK

T5: Sac7d M29F (Sulfolobus acidocaldarius, UniProt P13123 1-66, M29F)
T5 sequence: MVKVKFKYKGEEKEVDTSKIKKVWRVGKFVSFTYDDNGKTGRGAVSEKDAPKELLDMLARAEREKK


How the values were obtained:
Assay in all cases: X-ray crystallography
Sac7d M29A = target: T1, Sac7d M29A
Sac7d V26A = target: T2, Sac7d V26A
Sac7d V26A/M29A [1] = target: T3, Sac7d V26A/M29A
Sac7d V26F/M29F = target: T4, Sac7d V26F/M29F
Sac7d M29F [2] = target: T5, Sac7d M29F
Sac7d M29F [3] = target: T5, Sac7d M29F; remark: listed apart in the source
Sac7d V26A/M29A [4] = target: T3, Sac7d V26A/M29A; remark: listed apart in the source
Sac7d V26A/M29A [5] = target: T3, Sac7d V26A/M29A; remark: listed apart in the source

Binder	binding result (Sac7d M29A)	binding result (Sac7d V26A)	binding result (Sac7d M29F [3])	also measured
GCGATCGC duplex (dsDNA) DNA 1: GCGATCGC DNA 2: GCGATCGC	binds	binds	–	binding result (Sac7d V26A/M29A [1]): binds; binding result (Sac7d V26F/M29F): binds; binding result (Sac7d M29F [2]): binds
GTAATTAC duplex (dsDNA) DNA 1: GTAATTAC DNA 2: GTAATTAC	binds	binds	binds	–
GCGAUbrCGC duplex (dsDNA, DNA with bromo-dU at position 5 of each strand) DNA 1: GCGAUCGC DNA 2: GCGAUCGC	–	–	binds	binding result (Sac7d V26A/M29A [4]): binds
GCGATiCGC duplex (dsDNA, DNA with iodo derivative at position 5 (printed Ti; presumably iodo-dU)) DNA 1: GCGAUCGC DNA 2: GCGAUCGC	–	–	–	binding result (Sac7d V26A/M29A [5]): binds

From article PMC546169
